Ends that are not written are not given here. CF = 5(6)-carboxyfluorescein
Target: T1, Neural cell adhesion molecule (NCAM, CD56) (human, UniProt P13591 20-858)
T1 construct: whole, on cells
Assay: confocal microscopy of Saos-2 cells with fluorescently labeled peptide
Procedure: Cell specificity and uptake of the fluorescently labeled peptides was monitored utilizing a Zeiss Meta LSM 510 confocal imaging system. Cells were plated on glass slides and incubated overnight. The following day cells were incubated with 100 μM of CF-NTP or CF-scrambled peptide for 30 minutes at 37° C., washed several times with PBS, fixated with 4% paraformaldehyde, stained with Hoechst stain and mounted on slides. In order to examine intracellular trafficking of the peptide, cells were incubated with the peptides in serum free medium, washed several times with cold PBS and incubated with […] AlexaFluor 594 human transferrin for 1 h at 37° C. Cells were washed several times with PBS, fixated with 4% PFA, stained with Hoechst stain and mounted on slides.
Binding of NTP (SEQ ID NO:1) to Saos-2 cells, compared to binding of sNTP (SEQ ID NO:2), was examined by confocal microscopy. FITC-labeled targeting peptides were used. […] In experiments with transferrin, peptide was seen as intracellular aggregates or vesicles, though not colocalized with transferrin.

T1 sequence (P13591 20-858): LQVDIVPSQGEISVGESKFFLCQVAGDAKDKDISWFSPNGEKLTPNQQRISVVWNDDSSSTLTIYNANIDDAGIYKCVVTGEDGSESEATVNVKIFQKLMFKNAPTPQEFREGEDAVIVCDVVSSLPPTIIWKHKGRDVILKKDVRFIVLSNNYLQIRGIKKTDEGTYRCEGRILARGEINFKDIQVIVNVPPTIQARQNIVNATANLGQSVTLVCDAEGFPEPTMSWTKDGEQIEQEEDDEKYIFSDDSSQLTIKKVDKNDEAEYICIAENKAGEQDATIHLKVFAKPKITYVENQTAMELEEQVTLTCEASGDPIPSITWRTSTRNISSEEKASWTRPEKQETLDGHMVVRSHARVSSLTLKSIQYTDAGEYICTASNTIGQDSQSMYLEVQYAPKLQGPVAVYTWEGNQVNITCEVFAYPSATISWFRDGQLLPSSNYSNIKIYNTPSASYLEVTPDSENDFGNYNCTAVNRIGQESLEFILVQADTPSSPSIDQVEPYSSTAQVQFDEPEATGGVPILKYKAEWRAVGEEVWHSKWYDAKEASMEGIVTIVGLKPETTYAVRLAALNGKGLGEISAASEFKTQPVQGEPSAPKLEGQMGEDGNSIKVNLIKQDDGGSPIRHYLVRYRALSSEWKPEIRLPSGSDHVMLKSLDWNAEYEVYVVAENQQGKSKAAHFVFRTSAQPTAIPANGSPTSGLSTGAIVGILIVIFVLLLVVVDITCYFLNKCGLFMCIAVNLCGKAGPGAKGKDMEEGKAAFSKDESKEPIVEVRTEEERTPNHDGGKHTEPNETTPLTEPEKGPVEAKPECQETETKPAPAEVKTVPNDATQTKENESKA

binding result: no binding (tested: 100 µM)
B1: scrambled NTP sequence (sNTP), fluorescein-labeled (peptide)
peptide: {CF}-GESDDEND
notes: also called scrambled peptide; CF-scrambled peptide
